Test results: patent US20070248589A1 (GOVERNMENT OF THE UNITED STATES OF AMERICA AS REPRESENTED …, published 2007)

T1: GST-SPATIAL(L) (Mus musculus, UniProt Q7TSD4)
T1 construct: made in house
T1 sequence (Q7TSD4 with tags, fused parts or gaps isoform Q7TSD4-6 limits assumed): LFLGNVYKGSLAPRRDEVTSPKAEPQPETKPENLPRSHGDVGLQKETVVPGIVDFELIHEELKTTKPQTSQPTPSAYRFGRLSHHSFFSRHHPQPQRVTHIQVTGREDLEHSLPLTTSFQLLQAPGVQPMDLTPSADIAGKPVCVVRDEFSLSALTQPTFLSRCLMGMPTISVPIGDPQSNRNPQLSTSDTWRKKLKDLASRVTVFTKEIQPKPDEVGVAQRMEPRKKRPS

T2: HA-tagged SPATIAL (Mus musculus, UniProt Q7TSD4)
T2 construct: expressed in transfected cells; host or cells: 293T human kidney epithelial cells, calcium phosphate transfection
T2 sequence (Q7TSD4 with tags, fused parts or gaps isoform Q7TSD4-6 limits assumed): T1 sequence (Q7TSD4 with tags, fused parts or gaps isoform Q7TSD4-6 limits assumed)
T2 sequence (Q8C878 224-462 P243X partner limits assumed): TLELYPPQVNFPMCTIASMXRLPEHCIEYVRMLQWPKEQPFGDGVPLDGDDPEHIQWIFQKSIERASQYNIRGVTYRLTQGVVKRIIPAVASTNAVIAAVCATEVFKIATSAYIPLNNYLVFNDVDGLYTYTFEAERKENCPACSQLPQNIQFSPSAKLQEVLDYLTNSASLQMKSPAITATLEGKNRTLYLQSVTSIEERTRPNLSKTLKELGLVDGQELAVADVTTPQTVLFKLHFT

B1: Myc-346: Myc-tagged Uba3-clone 346, carboxyl terminus of Uba3, residues 203 to 441 of SEQ ID NO: 6 (protein, listed as Mus musculus)
chain: TLELYPPQVNFPMCTIASMPRLPEHCIEYVRMLQWPKEQPFGDGVPLDGDDPEHIQWIFQKSIERASQYNIRGVTYRLTQGVVKRIIPAVASTNAVIAAVCATEVFKIATSAYIPLNNYLVFNDVDGLYTYTFEAERKENCPACSQLPQNIQFSPSAKLQEVLDYLTNSASLQMKSPAITATLEGKNRTLYLQSVTSIEERTRPNLSKTLKELGLVDGQELAVADVTTPQTVLFKLHFT
modifications: not fully specified (N-terminus); also: Myc tag
B2: SPATIAL-EGFP: SPATIAL isoform fused to enhanced green fluorescent protein, expressed from pEGFPN1 (protein)
chain: T1 sequence (Q7TSD4 with tags, fused parts or gaps isoform Q7TSD4-6 limits assumed)
modifications: left off: large carriers
notes: SPATIAL isoform fused to enhanced green fluorescent protein, expressed from pEGFPN1

Tests used:
GST-SPATIAL(L) = target: T1, GST-SPATIAL(L); assay: GST pulldown assay with GST-SPATIAL long isoform; type: binding; conditions: 35S-methionine labeled in vitro translated protein
Protocol: Eighteen cDNA clones identified in the yeast two-hybrid system were tested in an in vitro glutathione-S-transferase (GST) pulldown assay, as described in Ausubel et al., Current Protocols in Molecular Biology, Greene Publishing Associates, updated November 2003, Chapter 20, Analysis of Protein Interactions, Unit 20.2, Affinity Purification of Proteins Binding to GST Fusion Proteins.
Briefly, a GST-SPATIAL fusion construct was produced by cloning SPATIAL cDNA(s) into pGEx5X1 expression vector using standard molecular cloning techniques. GST or GST-SPATIAL fusion protein were expressed in 1-1000 ml bacterial cultures grown for 3-4 hours until OD600 reached 0.5. Then, plasmid expression was induced for 1.5-4 hours by the addition of ITPG to a final concentration of 0.11 mM. GST or GST-fusion proteins were purified using glutathione-Sepharose beads as described in Ausubel et al., Current Protocols in Molecular Biology, Greene Publishing Associates, updated November 2003, Chapter 20, Analysis of Protein Interactions, Unit 20.2, Affinity Purification of Proteins Binding to GST Fusion Proteins.
A coupled in vitro transcription and translation system (Promega) was used according to the manufacturer's instructions to produce radiolabeled protein from cDNAs to be tested. Radiolabeled proteins were mixed with either purified GST or GST-SPATIAL. Then, GST-containing protein complexes were purified by centrifugation from the reaction mixtures using glutathione-coated Sepharose beads. Bound proteins were eluted from the beads with SDS-PAGE loading buffer heated to 72-85° C., separated on polyacrylamide gels, and visualized by autoradiography. Specific interactions between GST-SPATIAL and in vitro translated proteins were indicated by the presence of a radiolabeled in vitro translated protein in the GST-SPATIAL-containing samples, but not in the GST-alone samples.
GST pulldown assays were performed as described in Example 9 using GST-SPATIAL(L) and GST-SPATIAL(S) and each of the Uba3 mutants described in this example.

HA-tagged SPATIAL = target: T2, HA-tagged SPATIAL; assay: Co-immunoprecipitation of SPATIAL and Uba3 from transfected 293T cells; type: binding; conditions: only in samples that contained HA-tagged SPATIAL, FIG. 15
Protocol: Expression vectors encoding Myc-346 and HA-tagged SPATIAL were transfected alone or in combination into 293T cells by calcium phosphate precipitation (Mammalian Transfection Kit; Stratagene, La Jolla, Calif.) in accordance with manufacturer's instructions. Total protein lysates were prepared and immunoprecipitated with an anti-HA antibody, as described in Ausubel et al., Current Protocols in Molecular Biology, Greene Publishing Associates, updated November 2003, Chapter 20, Analysis of Protein Interactions, Unit 20.5, Detection of Protein-Protein Interaction by Coprecipitation. The immunoprecipitated proteins were separated by SDS-PAGE and transferred to a membrane for Western blotting using an anti-Myc antibody.

293T cells [1] = assay: Cell growth analysis: number of fluorescent (EGFP-positive) cells after transient transfection; type: cell-based, human
Protocol: Human embryonic kidney (293T) cells were maintained in DMEM supplemented with 10% heat-inactivated FBS, 2 mM glutamine, 100 U/ml penicillin, and 0.1 mg/ml streptomycin Cells were grown at 37° C. in a humidified atmosphere with 5% CO2.
The day before transfection, the cells were trypsinized (if needed), counted and plated in a 24-well plate at the density of 7.5×10^4 cells per well with 0.5 ml of their normal growth medium containing serum without antibiotics. On the day of transfection, cells were transfected according to the recommended protocol using 1.0 μg of each plasmid DNA and 3 μl of Lipofectamine 2000 in each well. The cells were kept at 37° C. in a CO2 incubator for 24 hours. […] The number of EGFP-positive cells was calculated using fluorescence-activated cytometry (FACS) analysis at various time points after transfection.
In representative experiments, approximately 0.5-1×10^6 293T cells were transiently transfected with approximately 1-10 μg of either SPATIAL EGFP expression vector or EGFP expression vector by calcium phosphate precipitation using the Mammalian Transfection Kit (Stratagene) in accordance with the manufacturer's instructions. The number of fluorescent EGFP- or SPATIAL-EGFP-transfected cells was monitored over time using flow cytometry or microscopic examination. […]

293T cells [2] = assay: Propidium iodide staining for apoptosis; type: cell-based, human; conditions: 24 to 72 hours after transfection
From the text: Propidium iodide is a commonly known fluorescent compound, which intercalates into double-stranded nucleic acids. It is excluded by viable cells but can penetrate cell membranes of dying or dead cells. Thus, apoptotic cells may be identified by staining (and, in particular, nuclear staining) with propidium iodide.
Approximately 0.5-1.0×10^6 293T cells were transfected with SPATIAL-EGFP using either calcium phosphate (Mammalian Transfection Kit; Stratagene, La Jolla, Calif.) or Lipofectanine (Invitrogen, Rockville, Md.) in accordance with the manufacturers' instructions. Twenty-four (24) to 72 hours after transfection, the transfected cells were sorted. Approximately 1-5×10^5 sorted cells were resuspended in a solution contain 50 μg/ml propidium iodine, 0.1% sodium citrate and 0.1% Triton X-100 and incubated overnight to lyse the cells and stain the nuclei. Then, the sample was analyzed by flow cytometry to identify sub-diploid amounts of DNA which indicates cell death via apoptosis.

caspase = assay: Caspase activation flow cytometry assay (PhiPhi Lux); type: cell-based; conditions: SPATIAL-EGFP transfected cells
From the text: Caspase activation plays a central role in the execution of apoptosis (e.g., Budihardjo et al., Ann. Rev. Cell. Dev. Biol., 15:269-90, 1999).

Wehi7.2 cells = assay: Bcl-2 expression assay, SPATIAL-EGFP transfected thymocyte cell line; type: cell-based, mouse; conditions: transient transfection by electroporation
Protocol: (§1) The mouse thymocyte cell line Wehi 7.2 and its variant Wbcl-2, which over expresses bcl-2, were maintained in DMEM supplemented with 10% heat-inactivated FBS, 2 mM glutamine, 100 U/ml penicillin, and 0.1 mg/ml streptomycin. Cells were grown at 37° C. in a humidified atmosphere with 5% CO2.
(§2) Transient transfections were performed using either lipids (Lipofectamine 2000 or FreeStyle 293 Expression System, each supplied by Invitrogen, Rockville, Md.) or calcium phosphate (Mammalian Transfection Kit; Stratagene, La Jolla, Calif.) or electroporation. Manufacturer instructions were followed for lipid and calcium phosphate transfections. For electroporation, the following procedure was used: Before transfection, Wehi cell and Wbcl-2 cells were counted and suspended in fresh complete DMEM without antibiotics at 5×10^5 cells/ml in a 15 cm dish. On the day of transfection, the cells were washed with PBS twice and were suspended in serum free DMEM at 6.25×10^6 cells/mL Aliquots of 800 μl cell suspension were transferred to a 4 mm electroporation cuvette and 10 μg of plasmid DNA solution was added. After 10 minutes incubation on ice, the cells were electroporated under the condition of 310 V, 725 ohms resistance, and 1050 μF capacitance. The transfected cells were incubated on ice for 10 minutes and suspended in complete DMEM in 10 cm dishes at the density of 7.5×10^4 viable cells/ml. […]

Hb12 cells = assay: Bcl-2 expression assay, SPATIAL-EGFP transfected Bcl-2 expressing thymocyte cell line; type: cell-based, mouse; conditions: transient transfection by electroporation
Protocol: as §1, §2

293T cells [3] = assay: DiI cell division analysis by FACS; type: cell-based, human; conditions: 4-day period, FIG. 7
Protocol: 293T cells were transfected with expression plasmid for EGFP alone (pEGFPN1; Clontech) or EGFP-SPATIAL(L). Twenty four (24) hours later, transfected cells were reacted with 3H-Indolium, 2-[3(1,3-dihydro-3,3-dimethyl-1-octacdecyl-2H-indol-2-ylidene)-propenyl]-3,3-dimethyl-octacdecyl-, perchlorate (DiI; Molecular Probes, Eugene, Oreg.) a fluorescent compound that […] binds to lipids. EGFP-positive and/or EGFP-negative cells were analyzed by FACS on the day after transfection and 1 hour after DiI labeling (Day 0) and four days after transfection (Day 4) as indicated.
To directly examine division of SPATIAL EGFP transfected cells, the lipophilic dye, 3H-Indolium, 2-[3-(1,3-dihydro-3,3-dimethyl-1-octacdecyl-2H-indol-2-ylidene) 1-propenyl]-3,3-dimethyl-1-octacdecyl-, perchlorate (DiI). DiI becomes highly fluorescent when it interacts with cell membranes and is equally portioned to each daughter cell during cell division. This property has been used to monitor cell divisions based on the reduction of dye in successive generations, which can be monitored using FACS analysis (Huang et al., Blood, 94(8):2595-2604, 1999). DiI was chosen so that the generational analysis could be done on EGFP-positive cells.

Molecule	interaction with GST-SPATIAL(L) (GST-SPATIAL(L))	co-immunoprecipitation by anti-HA antibody (HA-tagged SPATIAL)	increase in the number of fluorescent cells (293T cells [1]; four day period post-transfection, FIG. 6)	increase in the number of fluorescent transfected cells (293T cells [1]; two-week period post-transfection, G418 selection)	apoptosis based on nuclear morphology of propidium iodide stained cells (293T cells [2])	caspase activation (caspase)	cell growth of transfected cells (Wehi7.2 cells)	cell growth of transfected cells (Hb12 cells)	cell division of EGFP-positive cells (293T cells [3])
B1	specifically interacted	reproducibly immunoprecipitated	–	–	–	–	–	–	–
B2	–	–	no increase	2-3 fold	no evidence of apoptosis	No caspase activation was detected	profound suppression of cell growth	profound suppression of cell growth	effectively blocked the majority of transfected cells from dividing
